Measured values taken from the supplement of paper PMC9170038.

Columns and labels:
[1] = test system: MS2 coat protein; assay: apparent KD of MS2 coat protein; designed switch direction (-1 OFF switch, 1 ON switch): -1; higher = weaker reporter binding; conditions: Eterna round: R98
Method: (§1)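 RNA-MaP: designed FMN/MS2 RNA switches (84 nt design region) are transcribed on-chip within common flanks and titrated with SNAP-549-labelled MS2 coat protein (about 1-3000 nM) in 100 mM Tris pH 7.5, 80 mM KCl, 4 mM MgCl2, without or with 200 uM FMN. Median apparent KD per design; activation ratio = KD,OFF / KD,ON.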

[2] = test system: MS2 coat protein; assay: apparent KD of MS2 coat protein; designed switch direction (-1 OFF switch, 1 ON switch): 1; higher = weaker reporter binding; conditions: Eterna round: R98
Method: as §1

Sequence	apparent KD of MS2 coat protein ([1]; input ligand: FMN 200 uM)	apparent KD of MS2 coat protein ([1]; input ligand: none)	apparent KD of MS2 coat protein ([2]; input ligand: FMN 200 uM)	apparent KD of MS2 coat protein ([2]; input ligand: none)
AAAAUAAAGGCAGGAUAUACAUGAAUAAAUAAUAUAAUAUAUAAUAAAACAUGAGGAUCACCCAUGUAGAAGGGCCAAAAUAAA [LRO024_Exclusion NG 2]	0.107 µM	0.0723 µM	–	–
AAUAUAAGAGCUGGAAAUAAACUCACAUGAGGAUCACCCAUGUAGGAUAUCAGCACGAUAAGUGCUGAGAAGGACAUCCAGCUC [Denovo 56]	0.0147 µM	0.0164 µM	–	–
AAUAUGAGCUGGAAUAUAAAACUCACAUGAGGAUCACCCAUGUAGGAUAUCAGCACGAUAAGUGCUGAGAAGGACAACCAGCUC [Denovo 31]	0.0151 µM	0.0168 µM	–	–
GCACUGGAUGUAGGAUAUCAGGACGAUAAGUCCUGAGAAGGACAUGAGGAUCACCCAUGUGCCAAAACCAGUGCAUAUAAUAUA [Denovo Exng1 33]	0.0169 µM	0.0125 µM	–	–
GGGUCGCUUGGAGGAUAUCCAACUAUCCUAGUUGGAGAAGGCCAAGCUACAGAGCUAAGCUUGGAAGUCACUUCGGACCCACAC [pwkr ssNG1 F9.4.5]	–	–	0.047 µM	0.0156 µM
GGUCCAUCAUGAGGAUAUGGCACCUUAUUGGUGCCAGAAGGCAUGUGUAUUCACAUGAGGAUCACCCAUGUAAUAAAUUGGACC [Pyrimidine booster 8]	–	–	0.0215 µM	0.0532 µM
GGUUGACGACAAUUACAUGAGGAUCACCCAUGUUGUGGGAUGCAGGAUAUGUGGUAUAUUAUUUAACAGAAGGGCAAUAAUUUU [JR_SSNG3_Sub063]	–	–	0.0547 µM	0.0323 µM
GUUGCUUUCCGAGGAUAUUCCGGGCGUGGCUAUACAUGAGGAUCACCCAUGUGGCGGAAGCCUAGGGAGAAGGCGGGCUGCUUC [salish99_SSNG2_r2_230]	–	–	0.0163 µM	0.0171 µM
UAGAUAUGGUGAGGAUAUGCAGAGGAUCACCCUGUAGAAGGCAUCAGGGUAGAAGGUGCAAGGAUCACCUGUAAGGAUAUAUCC [pwkr2 ssNG1 DX.29]	–	–	0.917 µM	1.05 µM
UCAUACAUGAGGAUCACCCAUGACAUGAGGAUCACCCAUGUGCAGGAUAUACGUGAUAUAAUAUAGUAGAAGGGCAGACCAUAA [LRO005_Exclusion NG 3]	0.0591 µM	0.0406 µM	–	–
UCUCUGGAAUACAUGAGGAUCACCCAUGUGUAAACAUUUACACAGGAUAUCGACGUCUGAGACGACGAGAAGGGUGGGCAGCAA [Rexele]	–	–	1 µM	0.252 µM
UGAUCGCUUGGAGGAUAUCCAACUAUCCUAGUUGGAGAAGGCCAAGCUACAGAGCUAAGCUUGGAAGUCACUUCGAAUCAACAC [pwkr Chip 1 Control 70 ssNG1 F9.4]	–	–	0.0648 µM	0.0536 µM
UGUUGUUACGCAGGAUAUUGCCAACAGGCGGUAGGAUAUCCGAAAGGAGAAGGACCGCCAACAGGCGAGAAGGGCGGGUUAACA [pwkr exNG2 2xF7 2FMN.10.1]	0.037 µM	0.0352 µM	–	–
